Assay results reported in patent publication US10385103B2, “Cell-permeable (ICP)-SOCS3 recombinant protein and uses thereof” (CELLIVERY THERAPEUTICS, INC., priority 2014, dated 2019).
Entries after “also recorded” stand apart in the source; their conditions may differ.

Experiments:
RAW 264.7 cells = assay: Cell-permeability of FITC-labeled SOCS3 recombinant proteins (flow cytometry); assay type: cell-based
Experimental: To examine cell-permeability of SOCS3 recombinant protein, SOCS3 recombinant proteins were conjugated to 5/6-fluorescein isothiocyanate (FITC). RAW 264.7 (KCLB, Seoul, South Korea) (FIG. 20) or NIH3T3 cells (KCLB, Seoul, South Korea) (FIG. 21) were treated with 10 μM FITC-labeled SOCS3 recombinant proteins and cultivated for 1 hr at 37° C.
In this regard, RAW 264.7 cells were cultured in a DMEM medium containing 10% fetal bovine serum (FBS, Hyclone, USA) and […] of 1% penicillin/streptomycin (Hyclone, USA).
After cultivation, the cells were washed three times with ice-cold PBS (Phosphate-buffered saline, Hyclone, USA) and treated with proteinase K (10 μg/mL, SIGMA, USA) to remove surface-bound proteins, and internalized proteins were measured by flow cytometry (FlowJo cytometric analysis software, Guava, Millipore, Darmstadt, Germany). Untreated cells (gray) and equimolar concentration of unconjugated FITC (FITC only, green)-treated cells were served as control (FIG. 20). Each of NIH3T3 cells was incubated for 1 hour at 37° C. with 10 μM FITC-labeled SOCS3 protein. For nuclear staining, a mixture of […] Mounting Medium (Vector laboratories, Burlingame, Calif.) and DAPI (4′,6-diamidino-2-phenylindole) was added to NIH3T3 cells, and visualized using a confocal laser microscope (LSM700, Zeiss, Germany) (FIG. 21).

[1] = Tissue-permeability / systemic delivery of FITC-labeled SOCS3 proteins after intraperitoneal injection; assay type: in vivo, ICR mice
Experimental: To further investigate in vivo delivery of SOCS3 recombinant proteins, ICR mice (Doo-Yeol Biotech Co. Ltd., Seoul, Korea) were intraperitoneal (IP) injected with 600 μg/head of 10 μM FITC (Fluorescein isothiocyanate, SIGMA, USA)-labeled SOCS3 proteins and sacrificed after 2 hrs. From the mice, the liver, kidney, spleen, lung, heart, and brain were removed and washed with PBS, and then placed on a dry ice, and embedded with an O.C.T. compound (Sakura). After cryosectioning at 20 μm, tissue distributions of fluorescence-labeled-SOCS3 proteins in different organs was analyzed by fluorescence microscopy (Carl Zeiss, Gottingen, Germany)(FIG. 22).
The liver tissue permeability was analyzed by the method described in Example 7-2.

Huh7 cells = assay: Induction of apoptosis, TUNEL assay; assay type: cell-based, human; conditions: 10 μM, 24 hr, 2% fetal bovine serum
Experimental: (§1) Apoptotic cells were analyzed using terminal dUTP nick-end labeling (TUNEL) assay with In Situ Cell Death Detection kit TMR red (Roche, 4056 Basel, Switzerland). Cells were treated for 24 hr with 10 μM HS3B or HM165S3B proteins with 2% fetal bovine serum and apoptotic cells were visualized by TUNEL staining. Treated cells were washed with cold PBS two times, fixed in 4% paraformaldehyde (PFA, Junsei, Tokyo, Japan) for 1 hr at room temperature, and incubated in 0.1% Triton X-100 for 2 min on the ice. Cells were washed with cold PBS twice, and treated TUNEL reaction mixture for 1 hr at 37° C. in dark, washed cold PBS three times and observed by fluorescence microscopy (Nikon, Tokyo, Japan). Cisplatin® (IC50: 30 μM) was used for reference drug.

Chang liver cells = assay: Induction of apoptosis, TUNEL assay; assay type: cell-based, human; conditions: 10 μM, 24 hr, 2% fetal bovine serum
Experimental: as §1

IL-6 = assay: LPS/IFN-γ-induced cytokine secretion in peritoneal macrophages (cytometric bead array), IL-6; assay type: cell-based, C3H/HeJ mice; conditions: 10 μM protein; IFN-γ and LPS
Experimental: Peritoneal macrophages were obtained from C3H/HeJ mice (Doo-Yeol Biotech Co. Ltd. Korea) Peritoneal macrophages were incubated with 10 μM SOCS3 recombinant proteins (1:HS3, 2:HM165S3, 3:HM165S3A and 4:HM165S3B, respectively) for 1 hr at 37° C. and then stimulated them with LPS (Lipopolysaccharide)(500 ng/ml) and/or IFN-γ (100 U/ml) without removing iCP-SOCS3 proteins for 3, 6, or 9 hrs. The culture media were collected, and the extracellular levels of cytokine (TNF-α, IL-6) were measured by a cytometric bead array (BD Pharmingen, San Diego, Calif., USA) according to the manufacturer's instructions.

normal cells = assay: Inhibition of cell cycle progression (PI staining, flow cytometry); assay type: cell-based; conditions: 10 uM, 8 hrs
Experimental: HCCs and normal cells were treated with 10 uM protein (Non-CP-SOCS3 (HS3B) and iCP-SOSC3 (HM165S3B)) for 8 hrs. After the treatment, cells were washed twice with cold PBS and re-suspended in 1 ml cold PBS, fixed in cold 70% ethanol, washed with cold PBS twice and re-suspended in PI master mix (PI 10 ug/ml (SIGMA, USA), 50 ug/ml RNase A (Invitrogen, USA) in staining buffer) at a final cell density of 2×10^5 cell/ml. The cell mixtures were incubated 30 min in the dark at 4° C. Flow cytometric analysis was immediately performed using a guava easyCyte™ 8 Instrument (Merck Millipore, Darmstadt, Germany).

AGS cells = assay: Antiproliferative activity, CellTiter-Glo Cell Viability Assay; assay type: cell-based; conditions: 10 μM, 96 hrs, 2% serum
Experimental: Antiproliferative activity were evaluated with the CellTiter-Glo Cell Viability Assay. AGS cells (3×10^3/well) were seeded in 96 well plates. The next day, cells were treated with DMEM (vehicle) or 10 μM HM165S3B, HM15S3B′(V28L) for 96 hrs in the presence of serum (2%). Proteins were replaced daily. Cell growth and survival were evaluated with the CellTiter-Glo Cell Viability Assay (Promega, Madison, Wis.). Measurements using a Luminometer (Turner Designs, Sunnyvale, Calif.) were conducted following the manufacturer's protocol.

HepG2 tumor = assay: Anti-tumor activity in cell-derived xenograft model; conditions: for inhibition on the tumor size: observation 3 weeks
Experimental: Female Balb/c^nu/nu mice (5-week-old, Doo-Yeol Biotech Co. Ltd. Korea) were subcutaneously implanted with Hep3B2.1-7 tumor block (1 mm^3) into the left back side of the mouse. […] Tumor size was monitored by measuring the longest (length) and shortest dimensions (width) once a day with a dial caliper, and tumor volume was calculated as width2×length×0.5.
Then, tumor volumes were examined. […] Then, tumor volumes were examined.

B1: HM165S3B: His-tagged recombinant protein of aMTD165, human SOCS3 and solubilization domain B; prototype improved cell-permeable SOCS3 (protein)
chain: MGSSHHHHHHSSGLVPRGSHMALAVPVALAIVPVTHSKFPAAGMETSRPLDTSLRLKTFSSKSEYQLVVNAVRKLQESGFYWSAVTGGEANLLLSAEPAGTFLIRDSSDQRHFFTLSVKTQSGTKNLRIQCEGGSFSLQSDPRSTQPVPRFDCVLKLVHHYMETPPPGAPSFPSPPTEPSSEVPEQPSAQPLPGSPPRRAYYIYSGGEKIPLVLSRPLSSNVATLQHLCRKTVNGHLDSYEKVTQLPGPIREFLDQYDAPLGSMAEQSDKDVKYYTLEEIQKHKDSKSTWVILHHKVYDLTKFLEEHPGGEEVLGEQAGGDATENFEDVGHSTDARELSKTYIIGELHPDDRSKIAKPSETL
modifications: Amino acid sequence of HM165S3B
dose-dependency of cell-permeability (RAW 264.7 cells; 0.05 μM~10 μM, 1 hrs): dose-dependent | cell-permeability (protein uptake) (RAW 264.7 cells; 10 μM FITC-labeled protein, 1 hr, 37° C.): efficiently entered the cells; also recorded: very efficient; also recorded: showed the highest cell-permeability; also recorded: high cell permeability | time-dependency of cell-permeability (RAW 264.7 cells; 10 μM, 5~180 minutes): high level of cell-permeability of iCP-SOCS3 was observed only 5 minutes post-treatment and could be seen even at 180 minutes mark | tissue distribution / systemic delivery ([1]; IP 600 μg/head FITC-labeled protein, sacrificed after 2 hrs, liver, kidney, spleen, lung, heart, brain): distributed to a variety of tissues (liver, kidney, spleen, lung, heart and, to a lesser extent, brain); also recorded: showed the highest systemic delivery of SOCS3 protein to the tissues; also recorded: exhibited superior cell-permeability | systemic delivery to liver ([1]; intraperitoneal injection): enhanced the systemic delivery to liver | induction of apoptosis (TUNEL), Huh7 (Huh7 cells): considerably efficient inducer of apoptosis | induction of apoptosis (TUNEL), Chang liver cells (Chang liver cells): did not induce apoptosis | effect on IL-6 secretion (IL-6): showed the greatest inhibitory effect on cytokine secretion | cell cycle progression in normal cells (normal cells): did not inhibit cell cycle progression | anti-proliferative activity (AGS cells): high anti-proliferative effects on gastric carcinoma cells | tumor growth inhibition at day 42 (HepG2 tumor; IV 600 μg/head for 21 days, 3 weeks after termination): 67% | inhibition on the tumor size (HepG2 tumor; IV 25 mg/kg every day for 3 weeks): 60% | inhibition on the tumor size (HepG2 tumor; IV 50 mg/kg every day for 3 weeks): 76% | inhibition on the tumor size (HepG2 tumor; IV 50 mg/kg three times a week for 3 weeks): 66%
